Source: the supplement of paper PMC10567573

B1: ANKRD40 (parent)
chain: VRIQNPSLRENDFIEIELDRQELT

Variants of: B1
Assay: protein stability index of a GFP-peptide fusion (GPS, HEK-293T) (PSI 1-6); higher = more stable
Settings: c terminus: a fixed tail appended
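Also: lentivirally expressed fusions sorted by FACS into six bins by GFP to DsRed ratio, PSI derived from sequencing read proportions per bin multiplied by bin number.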

Protein stability index of substitutions, site by site:
V1: H 4.04 | G 4.27 | K 3.97 | Q 4.27 | A 3.91 | L 2.71 | W 2.99 | Y 3.41 | I 2.03 | N 4.46 | T 3.96 | D 5.15 | F 2.58 | S 4.3 | R 3.63
L8: S 3.24 | H 2.93 | N 2.43 | P 3.13 | G 2.08 | I 3.35 | Y 2.15 | K 2.96 | Q 3.11 | A 2.77 | M 2.42 | W 1.98 | V 2.41 | R 2.47 | E 3.34 | C 2.36 | D 2.76 | F 2.27 | T 3.42
D12: Y 1.06 | H 2.11 | F 2.14 | M 3.11 | C 2.46 | P 2.58 | L 2.01 | K 2.61 | E 2.29 | S 1.83 | V 2.2 | R 2.97 | T 1.66 | I 2.08 | N 2.64 | A 1.81 | G 1.68 | W 2.37 | Q 2.1
E15: D 2.95 | Y 2.04 | A 2.38 | F 1.82 | V 1.89 | C 1.87 | T 2.27 | H 2.94 | N 3.29 | L 2.25 | I 2.45 | S 2.02 | G 3.02 | M 1.95 | K 2.47 | R 2.13 | W 1.97 | Q 2.18 | P 3.49
N11: H 2.39 | I 1.94 | A 2.18 | L 1.7 | W 1.41 | R 2.63 | F 1.69 | G 2.32 | Y 1.71 | E 1.79 | T 2.47 | D 2.08 | S 2.58 | Q 2.54 | C 1.69 | P 2.73 | V 1.97 | K 2.94 | M 1.99
R2: E 4.16 | V 2.46 | W 1.74 | H 3.13 | A 2.73 | L 2.24 | Y 1.73 | K 2.98 | T 3.5 | Q 4.3 | F 1.87 | D 4.69 | N 4.11 | I 2.29 | P 4.93 | M 3.05 | S 3.64 | G 4.28 | C 2.93
R9: T 2.54 | A 1.92 | L 2.48 | F 1.51 | G 2.32 | I 1.68 | E 2.74 | K 2.62 | V 2.03 | N 1.93 | S 2.41 | C 2.33 | P 2.63 | Q 2.16 | W 2.14 | H 1.81 | D 2.23 | Y 1.78 | M 1.97
P6: L 2.17 | M 2.18 | Q 2.6 | A 2.75 | V 2.02 | E 2.93 | D 2.38 | H 2.65 | R 2.69 | Y 1.73 | F 1.66 | T 2.02 | I 1.52 | N 2.67 | C 2.06 | K 2.67 | W 1.77 | S 2.16 | G 2.28
E17: K 2.27 | S 2.15 | T 1.86 | P 3.44 | V 1.35 | Q 1.96 | L 1.98 | G 3.22 | Y 2.22 | D 2.7 | C 1.65 | A 2.47 | H 2.62 | F 1.93 | N 2.66 | R 2.14 | W 1.85 | M 1.81 | I 1.97
